The target in experiment [1] is T1, TR4 (Homo sapiens, UniProt P49116).
T1 construct: full-length AR and TR4 in eukaryotic expression vectors (pSG5AR and pCMXTR4) were co-transfected; expressed in transfected cells; host or cells: H1299, HepG2
T1 sequence (P49116 1-615 isoform P49116-2 N175S/W419R/A428G/K503N/L504W/A613V): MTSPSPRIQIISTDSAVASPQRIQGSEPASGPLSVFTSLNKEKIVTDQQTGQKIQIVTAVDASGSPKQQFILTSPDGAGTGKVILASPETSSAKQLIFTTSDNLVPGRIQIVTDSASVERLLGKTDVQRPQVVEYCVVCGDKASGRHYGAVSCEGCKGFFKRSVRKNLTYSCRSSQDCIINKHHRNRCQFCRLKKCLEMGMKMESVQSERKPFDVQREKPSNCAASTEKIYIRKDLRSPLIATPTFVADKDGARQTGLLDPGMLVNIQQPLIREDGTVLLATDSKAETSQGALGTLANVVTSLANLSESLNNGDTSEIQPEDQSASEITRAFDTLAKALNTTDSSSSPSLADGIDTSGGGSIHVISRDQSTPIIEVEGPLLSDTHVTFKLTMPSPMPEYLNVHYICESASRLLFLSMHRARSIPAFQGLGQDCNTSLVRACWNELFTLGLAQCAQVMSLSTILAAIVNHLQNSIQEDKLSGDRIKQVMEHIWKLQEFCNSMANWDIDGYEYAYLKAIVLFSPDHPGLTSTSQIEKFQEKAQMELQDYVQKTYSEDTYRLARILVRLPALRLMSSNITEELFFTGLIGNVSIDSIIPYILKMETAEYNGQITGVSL
Description: TR4-mediated transactivation reporter assay. The experiment is classed as cell-based. Here is the method:
Cells were routinely maintained in DMEM with 10% heat-inactivated fetal bovine serum. The cells were transfected using a modified calcium phosphate precipitation method, Mizokami, & Chang, J: Biol. Chem. 269,25655-25659 (1994), or SuperFect (Qiagen). To normalize the transfection efficiency, the (3-galactosidase expression ver and pRL-TK were co-transfected in CAT assay and in Dual-luciferase reporter assay system (Promega), respectively.
More specifically, 500 ng of reporter plasmids were co-transfected(DR4-CAT and CNTFR-15-LUC) with 200 ng of pCMX-TR4 and increasing amounts of pCMV-AR (200, 600, and 1,200 ng), pSG5GR (1,200 ng), or pSG5 PR (1,200 ng) using the SuperFect transfection kit (Qiagen) (PCMV AR Mowszowicz et al., (1993) Molecular Endocrinology 7:861:869). […] Similar results were obtained when the DR4-TK-CAT reporter was replaced with DR1-CNTFR-15-LUC, another TR4 response element (FIG. 3A). Young, et al., J: Biol. Chem. 272,3109-3116 (1997).
Another TR4 potential target gene, which is located in the hepatitis B virus (HBV) enhancer II region (−34 to −7) containing a classic DR1 motif. Breidbart, et al., Pediatric Res. 34,300-302 (1993), was investigated. The reporter plasmid CpFL(4)-LUC, which contains the HBV core promoter (Cp) sequence located between −34 and −7 (nucleotide coordinates 1751 and 1778 derived from the Genbank database) was shown above in FIG. 3B. The arrows indicate the DRI motif in HBV core promoter. HepG2 cells were co-transfected with 1.5 μg CpFL(4)-LUC reporter and 0.5 μg pCMX-TR4, with increasing amounts of pCMV-AR (0.5, 2.5, and 5 μg) by modified calcium phosphate precipitation method. The relative reporter gene activities were compared to the CAT activities (or luciferase activities) with vector alone. To normalize the transfection efficiency, the β-galactosidase expression vector and pRL-TK were co-transfected in the CAT assay and in the Dual-luciferase reporter assay system (Promega), respectively.

For experiment [2], the system named is pS2. Nature of the experiment: Northern blot of pS2 in MCF-7-TR4 cells. The experiment is classed as cell-based. Particulars: 2 μg/ml Dox, E2.

The record followed here is patent publication US20030235860A1, “Interactions between AR, ER, TR2, and TR4” (priority 1999, published 2003).

Turning to AR: androgen receptor, SEQ ID NO:31, the “CAT activity induced by pCMXTR4 (DR4-TK-CAT; similar with DR1-CNTFR-I5-LUC)” value in experiment [1] (H1299 cells, absence or presence of DHT) is reported as “repressed significantly”. The “TR4-induced CpFL(4)-LUC activity (HBV core promoter)” value in experiment [1] (HepG2 cells, increasing pCMV-AR) is given as “significantly decreased”. In experiment [1] (Table 5), the “Activity TR4 (effect of regulator on transcription activity)” value was “Down”.

B1: TR4: human testicular orphan nuclear receptor 4, SEQ ID NO:16; expressed from plasmid or in vitro translated (protein)
chain: T1 sequence (P49116 1-615 isoform P49116-2 N175S/W419R/A428G/K503N/L504W/A613V)
Take B1: the “Expression of ER endogenous target gene pS2” value in experiment [2] is given as “repress”.
